T1: APBA2_2, Q99767
T1 sequence (Q99767 654-744, limits assumed, looked up): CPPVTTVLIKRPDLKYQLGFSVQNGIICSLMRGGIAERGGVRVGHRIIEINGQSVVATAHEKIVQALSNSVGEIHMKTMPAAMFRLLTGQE

T2: MPDZ_10, O75970
T2 sequence (O75970 1624-1722, limits assumed, looked up): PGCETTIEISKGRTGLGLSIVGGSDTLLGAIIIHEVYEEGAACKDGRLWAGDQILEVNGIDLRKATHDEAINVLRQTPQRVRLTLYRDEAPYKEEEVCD

T3: LIN7B, Q9HAP6
T3 sequence (Q9HAP6 88-185, limits assumed, looked up): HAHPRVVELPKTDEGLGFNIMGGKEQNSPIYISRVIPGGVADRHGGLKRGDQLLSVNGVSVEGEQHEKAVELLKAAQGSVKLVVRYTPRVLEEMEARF

T4: DVL3, Q92997
T4 sequence (Q92997 244-331, limits assumed, looked up): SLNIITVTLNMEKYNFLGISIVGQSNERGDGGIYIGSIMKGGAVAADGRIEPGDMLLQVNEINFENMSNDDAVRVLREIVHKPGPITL

T5: NHERF3_4, Q5T2W1
T5 sequence (Q5T2W1 373-468, limits assumed, looked up): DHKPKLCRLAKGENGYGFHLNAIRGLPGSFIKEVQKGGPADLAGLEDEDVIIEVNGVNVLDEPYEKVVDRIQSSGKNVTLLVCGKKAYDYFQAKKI

T6: APBA2_1, Q99767
T6 sequence (Q99767 563-664, limits assumed, looked up): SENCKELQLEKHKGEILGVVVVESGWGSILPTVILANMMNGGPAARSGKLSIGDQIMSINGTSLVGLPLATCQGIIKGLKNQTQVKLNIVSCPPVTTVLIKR

T7: PDZD7_3, Q9H5P4
T7 sequence (Q9H5P4 857-944, limits assumed, looked up): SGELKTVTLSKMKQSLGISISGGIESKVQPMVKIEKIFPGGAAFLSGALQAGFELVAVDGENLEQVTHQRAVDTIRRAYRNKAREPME

T8: HTRA4, P83105
T8 sequence (P83105 378-476, limits assumed, looked up): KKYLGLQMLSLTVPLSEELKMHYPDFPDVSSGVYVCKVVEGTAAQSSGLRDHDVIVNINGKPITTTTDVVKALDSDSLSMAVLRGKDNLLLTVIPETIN

T9: DFNB31_3, Q9P202
T9 sequence (Q9P202 811-907, limits assumed, looked up): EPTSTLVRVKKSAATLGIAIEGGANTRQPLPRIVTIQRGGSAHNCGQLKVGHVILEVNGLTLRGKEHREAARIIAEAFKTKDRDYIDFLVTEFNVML

T10: APBA3_1, O96018
T10 sequence (O96018 389-490, limits assumed, looked up): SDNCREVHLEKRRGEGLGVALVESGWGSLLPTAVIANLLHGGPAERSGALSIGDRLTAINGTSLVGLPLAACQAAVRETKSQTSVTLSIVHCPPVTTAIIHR

T11: SYNJ2BP, P57105
T11 sequence (P57105 8-110, limits assumed, looked up): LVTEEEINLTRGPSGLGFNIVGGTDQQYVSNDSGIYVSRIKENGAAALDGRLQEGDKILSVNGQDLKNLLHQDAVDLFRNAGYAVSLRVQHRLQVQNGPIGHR

T12: SIPA1L2, Q9P2F8
T12 sequence (Q9P2F8 945-1036, limits assumed, looked up): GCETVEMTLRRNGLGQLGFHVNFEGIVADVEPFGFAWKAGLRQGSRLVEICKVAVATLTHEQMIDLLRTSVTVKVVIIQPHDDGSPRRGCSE

T13: APBA1_1, Q02410
T13 sequence (Q02410 651-752, limits assumed, looked up): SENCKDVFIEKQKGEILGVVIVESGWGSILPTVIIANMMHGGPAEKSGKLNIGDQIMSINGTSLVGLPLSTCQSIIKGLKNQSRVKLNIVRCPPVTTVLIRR


Legend:
Assay in all cases: holdup assay
Parameters in all cases: key: below the threshold = too weak to quantify, mostly under pKd 3.1 to 4
Conditions in all cases: plain residues with an end cap or a label only (N-terminal biotin on a linker: ado-ado)
SNX27, Q96L92 = biological target: SNX27, Q96L92
Inadl_2, Q8NI35 = biological target: Inadl_2, Q8NI35
Sequence of Inadl_2, Q8NI35 (Q8NI35 238-335): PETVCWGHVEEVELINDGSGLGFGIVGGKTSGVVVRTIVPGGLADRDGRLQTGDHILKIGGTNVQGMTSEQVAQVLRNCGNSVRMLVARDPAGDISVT

PDLIM1, O00151 = biological target: PDLIM1, O00151
Sequence of PDLIM1, O00151 (O00151 1-87): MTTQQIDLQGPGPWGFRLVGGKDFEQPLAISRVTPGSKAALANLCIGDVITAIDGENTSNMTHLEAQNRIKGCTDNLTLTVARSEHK

MAGI3_2, Q5TCQ9 = biological target: MAGI3_2, Q5TCQ9
Sequence of MAGI3_2, Q5TCQ9 (Q5TCQ9 398-503): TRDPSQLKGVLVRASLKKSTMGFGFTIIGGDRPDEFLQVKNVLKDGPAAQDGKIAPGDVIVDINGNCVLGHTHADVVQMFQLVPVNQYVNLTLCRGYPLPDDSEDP

MAGI2_4, Q86UL8 = biological target: MAGI2_4, Q86UL8
Sequence of MAGI2_4, Q86UL8 (Q86UL8 772-865): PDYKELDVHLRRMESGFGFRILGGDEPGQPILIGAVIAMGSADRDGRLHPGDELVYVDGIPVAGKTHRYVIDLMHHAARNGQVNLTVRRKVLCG

GRIP2_3, Q9C0E4 = biological target: GRIP2_3, Q9C0E4
Sequence of GRIP2_3, Q9C0E4 (Q9C0E4 238-339): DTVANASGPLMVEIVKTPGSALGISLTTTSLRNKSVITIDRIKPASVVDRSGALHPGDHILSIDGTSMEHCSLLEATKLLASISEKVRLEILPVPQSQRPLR

GRIP2_7, Q9C0E4 = biological target: GRIP2_7, Q9C0E4
Sequence of GRIP2_7, Q9C0E4 (Q9C0E4 934-1023): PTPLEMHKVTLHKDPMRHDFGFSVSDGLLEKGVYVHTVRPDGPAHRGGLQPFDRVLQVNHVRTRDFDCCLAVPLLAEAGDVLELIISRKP

APBA2_2, Q99767 = biological target: T1, APBA2_2, Q99767
MPDZ_10, O75970 = biological target: T2, MPDZ_10, O75970
LIN7B, Q9HAP6 = biological target: T3, LIN7B, Q9HAP6
TJP2_1, Q9UDY2 = biological target: TJP2_1, Q9UDY2
Sequence of TJP2_1, Q9UDY2 (Q9UDY2 24-128): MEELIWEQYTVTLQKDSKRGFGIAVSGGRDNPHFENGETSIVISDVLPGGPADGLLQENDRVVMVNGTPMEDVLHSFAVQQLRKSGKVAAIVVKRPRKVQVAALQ

DVL3, Q92997 = biological target: T4, DVL3, Q92997
NHERF3_4, Q5T2W1 = biological target: T5, NHERF3_4, Q5T2W1
APBA2_1, Q99767 = biological target: T6, APBA2_1, Q99767
PDZD7_3, Q9H5P4 = biological target: T7, PDZD7_3, Q9H5P4
HTRA4, P83105 = biological target: T8, HTRA4, P83105
GRASP, Q7Z6J2 = biological target: GRASP, Q7Z6J2
Sequence of GRASP, Q7Z6J2 (Q7Z6J2 96-193): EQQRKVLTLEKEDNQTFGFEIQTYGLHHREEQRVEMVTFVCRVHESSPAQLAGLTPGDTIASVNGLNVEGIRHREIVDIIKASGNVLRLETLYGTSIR

DFNB31_3, Q9P202 = biological target: T9, DFNB31_3, Q9P202
APBA3_1, O96018 = biological target: T10, APBA3_1, O96018
MAST2, Q6P0Q8 = biological target: MAST2, Q6P0Q8
Sequence of MAST2, Q6P0Q8 (Q6P0Q8 1099-1202): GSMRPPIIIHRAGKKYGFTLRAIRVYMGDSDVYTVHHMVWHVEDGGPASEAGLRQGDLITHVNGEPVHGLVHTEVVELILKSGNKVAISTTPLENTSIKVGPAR

SYNJ2BP, P57105 = biological target: T11, SYNJ2BP, P57105
SIPA1L2, Q9P2F8 = biological target: T12, SIPA1L2, Q9P2F8
APBA1_1, Q02410 = biological target: T13, APBA1_1, Q02410
FRMPD4, Q14CM0 = biological target: FRMPD4, Q14CM0
Sequence of FRMPD4, Q14CM0 (Q14CM0 67-160): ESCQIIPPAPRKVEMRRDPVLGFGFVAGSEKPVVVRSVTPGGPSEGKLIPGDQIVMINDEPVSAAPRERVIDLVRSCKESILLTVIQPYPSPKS

| pKd (SNX27, Q96L92) | pKd (Inadl_2, Q8NI35) | pKd (PDLIM1, O00151) | pKd (MAGI3_2, Q5TCQ9) | pKd (MAGI2_4, Q86UL8) | pKd (GRIP2_3, Q9C0E4) | pKd (GRIP2_7, Q9C0E4) | pKd (APBA2_2, Q99767) | pKd (MPDZ_10, O75970) | pKd (LIN7B, Q9HAP6) | pKd (TJP2_1, Q9UDY2) | pKd (DVL3, Q92997) | pKd (NHERF3_4, Q5T2W1) | pKd (APBA2_1, Q99767) | pKd (PDZD7_3, Q9H5P4) | pKd (HTRA4, P83105) | pKd (GRASP, Q7Z6J2) | pKd (DFNB31_3, Q9P202) | pKd (APBA3_1, O96018) | pKd (MAST2, Q6P0Q8) | Binder | further results |
| --- | --- | --- | --- | --- | --- | --- | --- | --- | --- | --- | --- | --- | --- | --- | --- | --- | --- | --- | --- | --- | --- |
| below the threshold | below the threshold | below the threshold | below the threshold | below the threshold | below the threshold | below the threshold | below the threshold | below the threshold | below the threshold | below the threshold | below the threshold | below the threshold | below the threshold | below the threshold | below the threshold | below the threshold | below the threshold | below the threshold | below the threshold | TSSMRGMDAV [RSRC2, Q7L4I2] | pKd (SYNJ2BP, P57105): below the threshold; pKd (SIPA1L2, Q9P2F8): below the threshold; pKd (APBA1_1, Q02410): below the threshold; pKd (FRMPD4, Q14CM0): below the threshold |
| 3.64 | below the threshold | 3.93 | 4.32 | below the threshold | below the threshold | below the threshold | below the threshold | below the threshold | 3.71 | below the threshold | below the threshold | below the threshold | below the threshold | below the threshold | below the threshold | below the threshold | below the threshold | below the threshold | 4.95 | KKMPSIESDV [GRIN2A, Q12879] | pKd (SYNJ2BP, P57105): 4.85; pKd (SIPA1L2, Q9P2F8): below the threshold; pKd (APBA1_1, Q02410): below the threshold; pKd (FRMPD4, Q14CM0): below the threshold |
| 5.27 | below the threshold | below the threshold | below the threshold | below the threshold | below the threshold | below the threshold | below the threshold | below the threshold | below the threshold | below the threshold | below the threshold | 3.48 | below the threshold | 3.9 | 3.75 | below the threshold | 4 | below the threshold | 5.41 | TSQESEDTYL [TBC1D10A, Q9BXI6] | pKd (SYNJ2BP, P57105): 3.93; pKd (SIPA1L2, Q9P2F8): below the threshold; pKd (APBA1_1, Q02410): below the threshold; pKd (FRMPD4, Q14CM0): 5.3 |
| 5.6 | below the threshold | below the threshold | 5.27 | 4.4 | below the threshold | below the threshold | below the threshold | below the threshold | below the threshold | below the threshold | below the threshold | below the threshold | below the threshold | 5.04 | 3.59 | 3.5 | below the threshold | below the threshold | 5.1 | TACCHSETVV [TGFA, P01135] | pKd (SYNJ2BP, P57105): 4.55; pKd (SIPA1L2, Q9P2F8): below the threshold; pKd (APBA1_1, Q02410): below the threshold; pKd (FRMPD4, Q14CM0): below the threshold |
| 3.72 | below the threshold | below the threshold | below the threshold | 3.94 | below the threshold | below the threshold | below the threshold | below the threshold | below the threshold | 4.72 | 3.66 | below the threshold | below the threshold | 4.19 | 3.95 | 3.74 | below the threshold | below the threshold | 3.89 | HSGYRLNDYV [CLDN14, O95500] | pKd (SYNJ2BP, P57105): 3.63; pKd (SIPA1L2, Q9P2F8): below the threshold; pKd (APBA1_1, Q02410): below the threshold; pKd (FRMPD4, Q14CM0): 3.58 |
| 4.84 | below the threshold | below the threshold | 4.05 | below the threshold | below the threshold | below the threshold | below the threshold | 3.85 | below the threshold | below the threshold | below the threshold | below the threshold | below the threshold | 4.73 | below the threshold | 3.82 | below the threshold | below the threshold | 4.9 | DDENIRTSDV [PLEKHA2, Q9HB19] | pKd (SYNJ2BP, P57105): 4.38; pKd (SIPA1L2, Q9P2F8): below the threshold; pKd (APBA1_1, Q02410): below the threshold; pKd (FRMPD4, Q14CM0): below the threshold |
